As a reminder, the Kd is the concentration at which binding is half-saturated. Lower therefore signals a tighter complex.

The labels stand for the following.
B1: Eterna 6429508 (Inverted Exclusion NG 3) (ssRNA)
RNA: GGGUGCCCUGCAGAAGCGACAUGAGGAUCACCCAUGUAACGUAGAAGGGCCCGGAACUAAGGUGGGCAGGAUAUACUGUUAGGU
B2: Eterna 6429692 (Inverted Same State NG 1) (ssRNA)
RNA: AUCAUGCUCAAGAAGGACAUGAGGAUCACCCAUGUAGGAUAUUGGGCGGUCACUUCUAGCUUGUGUGUAUCUGAAUACUCCAGG
B3: Eterna 10033 (Sensor v3, turn-off variant 2) (ssRNA)
RNA: ACUAGCGAAAUGCUCGUCUUAUUUUUGUAGAGGUUCUAAACAUGAGGAUCACCCAUGUAGUGGUUUUUGUGGAGGUA
B4: Eterna 7634493 (Same State - Theophylline A) (ssRNA)
RNA: ACAUGAGGAUCACCCAUGUCUGCCACUGAUACCAGCGGAAGAAAACGCCCUUGGCAGCAGAACAUGAGGAUCACCCAUGUAGGCU
B5: Eterna 7695377 (Same State - Theophylline A) (ssRNA)
RNA: UCUUAACUAAAAUAAUGGGAUACCAGUGAUACCAGCCAUAUGCAGGGCCCUUGGCAGCACCCUUGGCAGCCUCGAGUGAUGUUCG
B6: Eterna 7720201 (Exclusion - Theophylline B) (ssRNA)
RNA: CCUAUCUCAUACGAUACCAGUCUACGAUAUUUUAUCGUUGCCAACACCGAGUGAUGUUCGGACCCUUGGCAGCGUAUGGGAUAGG
B7: Eterna 6417730 (Small Loop Same State NG 3) (ssRNA)
RNA: ACAUGAGGAUCUCCCAUGUAAAAUUAGGAUAUAUAACUGCACAUGAGGAUCACCCAUGUUUAACCGUAGAAGGGAUAAAUAAUU
B8: Eterna 1521 (Same State - FMN A) (ssRNA)
RNA: CGUAAGGAUUGACGACUGCAGAGCAAAAUAAAGGAUAUCGCAGCGUCGAGAAGGUUAUCGUGCGCCAGUGAUGUUGGCGGUAGUC
B9: Eterna 5988416 (Sensor, turn-off variant 1) (ssRNA)
RNA: UCACAAGCUGUGGGUGGUGACAUGAGGAUCACCCAUGUUUUGCUCGUCUUGUGCCGGGCCCGGCGCCCGGGCCCGGC
B10: Eterna 1188 (Exclusion - Theophylline B) (ssRNA)
RNA: AGCUGCCGAAUAGAUACCAGUGUCUUUAGUGAUGUUUCAGAGCUGGCACGAUCAGAAGGUCACCCUUGGCAGCUAGUGCCAGCGU
B11: Eterna 1174 (Exclusion - Theophylline B) (ssRNA)
RNA: GCUGUCCAGUUCGAUACCAGAGUUAUCGCACUGUAGUGAUAAAGUGAUGUUUUAUCAGUCCUCCCUUGGCAGCGAUGCCCGGCUG
B12: Eterna 7709687 (Same State - Tryptophan B) (ssRNA)
RNA: UAUUAAGUGACGGCCGCCACUAUGGUGAUUUAUUUGUUUGAGUGAUGUUUUGAUGUUUGAUUUUGUAGGACCGGGUUAUGUGUUA
B13: Eterna 6458016 (Inverted Same State NG 1) (ssRNA)
RNA: CGCUACACCCAGAAGGACAUGAGGAUCACCCAUGUAGGAUAUGGGAGACACAGUCCCAUGUAGAGAAAUUACGCUAGUGUAGCG
B14: Eterna 7705565 (Exclusion - FMN A) (ssRNA)
RNA: AGACUACCACACUGUCAAUAGACAGUGAACUAGGAUAUGCUGAUAAGCAGAAGGAGUGAUGUUCCUAAAGGUAGUCAAAUAUAAU
B15: Eterna 8125 (Exclusion 4) (ssRNA)
RNA: GUGAAGUGAGGAUAUACGAGAGAGGCUGAACCGGACGAGAAGUAGAAGGCACAUGAGGAUCACCCAUGUACGGG
B16: Eterna 1257 (Exclusion - Tryptophan B) (ssRNA)
RNA: CUGUUUUAGUCGGCCGCCACUGCAAGUGAUGUUUGGAGUAUUAUGCCGUUUCUGUCCAUUGAACCCAGGACCGGGACCGGAUCGU
B17: Eterna 5998949 (Sensor, turn-off variant 1) (ssRNA)
RNA: UUUCCGGCGCGGGUUUUUUACAUGAGGAUCACCCAUGUCCUCUGCUUGUCUUGUCUUGGGCUUUUUUUGGGUUCGGG

In one series the target is T1, MS2 coat protein, dlFG mutant (Escherichia phage MS2, UniProt P03612, del68-81insG). Nature of the series: 4 mM Mg2+; FMN 200 uM; RNA-MaP array; 100 mM Tris-HCl pH 7.5, 80 mM KCl, 4 mM MgCl2, 0.1 mg/mL BSA, 1 mM DTT, 0.01 mg/mL yeast tRNA, 0.01% Tween-20; protein 1.5 nM to 3 uM; 37 C (Table S3). As to conditions: chain copies: 2; label: tethered by stalled RNA polymerase.
B1 had a Kd of 7.24 nM.
The same measure, in the same setting: the value for B2 was 7.54 nM.

For the next series, the target named is T1, MS2 coat protein, dlFG mutant. Briefly: 4 mM Mg2+; miR-208a RNA 100 nM (AU…UUGU); RNA-MaP array; 100 mM Tris-HCl pH 7.5, 80 mM KCl, 4 mM MgCl2, 0.1 mg/mL BSA, 1 mM DTT, 0.01 mg/mL yeast tRNA, 0.01% Tween-20; protein 1.5 nM to 3 uM; 37 C (Table S3). Conditions: chain copies: 2; label: tethered by stalled RNA polymerase.
In turn, B3 gave a Kd of 265 nM.

The next series shares this target. Briefly: 4 mM Mg2+; theophylline 2 mM; RNA-MaP array; 100 mM Tris-HCl pH 7.5, 80 mM KCl, 4 mM MgCl2, 0.1 mg/mL BSA, 1 mM DTT, 0.01 mg/mL yeast tRNA, 0.01% Tween-20; protein 1.5 nM to 3 uM; 37 C (Table S3). Conditions: chain copies: 2; label: tethered by stalled RNA polymerase.
As to B4, the Kd worked out at 188 nM.

The target is the same in another series. Nature of the series: 4 mM Mg2+; no ligand; RNA-MaP array; 100 mM Tris-HCl pH 7.5, 80 mM KCl, 4 mM MgCl2, 0.1 mg/mL BSA, 1 mM DTT, 0.01 mg/mL yeast tRNA, 0.01% Tween-20; protein 1.5 nM to 3 uM; 37 C (Table S3). As to conditions: chain copies: 2; label: tethered by stalled RNA polymerase.
As for B5, the Kd is more than 3000 nM.
As to B6, the dissociation constant (Kd) was more than 3000 nM.
B7 yielded a dissociation constant (Kd) of 1100 nM.
On the same count and under the same terms, the value for B8 was more than 3000 nM; that for B9 was 1080 nM.
Same read-out and setting: the value for B10 was more than 3000 nM.
For the molecule UUUCAGGGCAGUGAUGUUGCCCUCUUU (ssRNA) [Eterna 9 (K4-7bp_control)], the equilibrium dissociation constant (Kd) is more than 3000 nM.
On the same count and under the same terms, the value for B11 was more than 3000 nM.
On the same count and under the same terms, the value for B12 was more than 3000 nM; that for B13 was 166 nM; that for B14 was more than 3000 nM.
Molecule B15 gave a Kd of 208 nM.
Regarding B16, the Kd is more than 3000 nM.
On the same count and under the same terms, then B17, with 798 nM.

(Values after PMC9170038, “Crowdsourced RNA design discovers diverse, reversible, efficient, self-contained molecular switches”.)
